Assay results reported in patent US20190367592A1 (AC IMMUNE, published 2019).
Numbering of substitutions follows the chain as printed. In names and notes the source's numbering stands.

B1: hu37D3-H9.v31.10 (antibody, V domains shown)
VH: EVQLVESGGGLVQPGGSLRLSCAASGLIFRSYGMSWVRQAPGKGLEWVATINSGGTYTYYPDSVKGRFTISRDNSKNTLYLQMNSLRAEDTAVYYCANSYSGAMDYWGQGTLVTVSS
VL: DDVLTQTPLSLPVTPGQPASISCRSSQSIVHSNANPYFEWYLQKPGQSPQLLIYKVSNRFSGVPDRFSGSGSGTDFTLKISRVEAEDVGVYYCFQGSLVPWTFGQGTKVEIK
B2: hu37D3-H9.v31.11 (antibody, V domains shown)
VH: B1 VH
VL: B1 VL with P36F
B3: hu37D3-H9.v31.12 (antibody, V domains shown)
VH: B1 VH
VL: B1 VL with P36Y
B4: hu37D3-H9.v31.13 (antibody, V domains shown)
VH: B1 VH
VL: B1 VL with P36N
B5: hu37D3-H9.v31.14 (antibody, V domains shown)
VH: B1 VH
VL: B1 VL with P36R
B6: hu37D3.v28.51 (antibody, V domains shown)
VH: B1 VH
VL: B1 VL with D1E, N33H, A34G, P36T
B7: hu37D3.v28.B3 (antibody, V domains shown)
VH: B1 VH
VL: B1 VL with N33Q, A34G, P36T, Y37W
B8: hu37D3.v28.B4 (antibody, V domains shown)
VH: B1 VH
VL: B1 VL with N33Q, A34G, P36T, Y37H
B9: hu37D3.v28.B7 (antibody, V domains shown)
VH: B1 VH
VL: B1 VL with N33D, A34G, P36T, Y37K
B10: hu37D3.v28.B8 (antibody, V domains shown)
VH: B1 VH
VL: B1 VL with N33E, A34G, P36T, Y37R
B11: hu37D3.v28.E3 (antibody, V domains shown)
VH: B1 VH
VL: B1 VL with H31D, N33D, A34G, P36T
B12: hu37D3-H9.v30.6 (antibody, V domains shown)
VH: B1 VH
VL: B1 VL with N33P, A34G, P36T
B13: hu37D3-H9.v30.7 (antibody, V domains shown)
VH: B1 VH
VL: B1 VL with N33F, A34G, P36T
B14: hu37D3-H9.v30.8 (antibody, V domains shown)
VH: B1 VH
VL: B1 VL with N33Y, A34G, P36T
B15: hu37D3-H9.v30.9 (antibody, V domains shown)
VH: B1 VH
VL: B1 VL with N33H, A34G, P36T
B16: hu37D3.v28.A30 (antibody, V domains shown)
VH: B1 VH
VL: B1 VL with D2V, L4M, A34G, P36T, F38L, L98H
B17: hu125B11.v17 (HC3+LC1) (antibody, IgG1, V domains shown)
VH: EVQLVESGGGLVQPGGSLRLSCAASRFIFSNYWMNWVRQAPGKGLEWVAQIRLKSDNYATHYAESVKGRFTISRDDSKNTLYLQMNSLRAEDTAVYYCTGGTTYWGQGTLVTVSS
VL: DIQMTQSPSSLSASVGDRVTITCKASQNVGTAVAWYQQKPGKSPKLLIYSASIRYTGVPSRFSGSGSGTDFTLTISSLQPEDFATYFCQQFRTYPYTFGQGTKVEIK
notes: also called hu125B11 HC3 + 125B11 LC1
B18: hu125B11.v26 (HC4+LC2) (antibody, IgG1, V domains shown)
VH: B17 VH with D76N
VL: B17 VL with S43A
notes: also called hu125B11 HC4 + 125B11 LC2
B19: hu125B11.v28 (HC4+LC4) (antibody, IgG1, V domains shown)
VH: B17 VH with D76N
VL: B17 VL with S43A, F87Y
notes: also called hu125B11 HC4 + 125B11 LC4
B20: hu37D3.v39 hIgG4.YTE (antibody, V domains shown)
VH: B1 VH
VL: EDQLTQSPSSLSASVGDRVTITCRSSQSIVHSNGNTYLEWYQQKPGKSPKLLIYKVSNRFSGVPSRFSGSGSGTDFTLTISSLQPEDFATYYCFQGSLVPWTFGQGTKVEIKR
notes: hu37D3-H9.v1 with light chain F33L; also called hu37D3.v39 hIgG4.S228P.YTE
B21: hu37D3.v40 hIgG4.YTE (antibody, V domains shown)
VH: B1 VH
VL: B20 VL with G34T, L38F
notes: hu37D3-H9.v1 with light chain G29T; also called hu37D3.v40 hIgG4.S228P.YTE
B22: hu37D3.v41 hIgG4.YTE (antibody, V domains shown)
VH: B1 VH
VL: B20 VL with N35Q, L38F
notes: hu37D3-H9.v1 with light chain N30Q; also called hu37D3.v41 hIgG4.S228P.YTE
B23: hu37D3-H9.v1 hIgG1 (antibody)
heavy: not shown
light: EDQLTQSPSSLSASVGDRVTITCRSSQSIVHSNGNTYFEWYQQKPGKSPKLLIYKVSNRFSGVPSRFSGSGSGTDFTLTISSLQPEDFATYYCFQGSLVPWTFGQGTKVEIKRTVAAPSVFIFPPSDEQLKSGTASVVCLLNNFYPREAKVQWKVDNALQSGNSQESVTEQDSKDSTYSLSSTLTLSKADYEKHKVYACEVTHQGLSSPVTKSFNRGEC
notes: also called hu37D3.v1 hIgG1

Key:
[1] = target: T1, recombinant human Tau monomer, 2N4R isoform (amino acids 2-441) (human, UniProt P10636-8 2-441); assay: SPR, captured IgG, Tau monomer analyte, 1:1 model; fit-quality column: -
T1 construct: range 2-441; N-terminal His-tag removed with TEV protease; also called monomeric Tau
T1 sequence (P10636 other isoform, or with tags, fused parts or gaps limits assumed): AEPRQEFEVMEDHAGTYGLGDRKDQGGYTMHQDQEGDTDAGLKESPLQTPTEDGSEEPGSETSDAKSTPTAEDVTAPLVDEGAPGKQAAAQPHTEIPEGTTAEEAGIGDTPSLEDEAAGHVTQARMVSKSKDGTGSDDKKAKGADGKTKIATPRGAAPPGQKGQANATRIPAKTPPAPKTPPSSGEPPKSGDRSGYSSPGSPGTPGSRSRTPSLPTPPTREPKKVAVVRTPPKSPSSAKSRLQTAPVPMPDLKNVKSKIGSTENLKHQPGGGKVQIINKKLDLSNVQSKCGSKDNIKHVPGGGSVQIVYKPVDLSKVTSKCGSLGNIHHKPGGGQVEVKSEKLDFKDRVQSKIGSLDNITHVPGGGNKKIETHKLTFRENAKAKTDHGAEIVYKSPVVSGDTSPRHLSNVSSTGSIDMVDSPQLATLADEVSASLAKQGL
Description: Briefly, IgGs in 1 mL culuture were captured using tip columns that were custom packed with 20 μL MabSelect SuRe resin (Glygen Corp & GE Healthcare). After washing with 1×PBS pH 7.4, IgGs were eluted into 160 μL of 50 mM phosphoric acid pH 3 and neutralized with 12 μL of 20×PBS pH 11. MabSelect SuRe tip columns were stripped in 0.1 M NaOH and regenerated with 1×PBS pH 7.4 for consecutive use of up to 15 times. Purified antibodies in 96-well format were normalized to 0.1 mg/ml using a Hamilton Star liquid handling robot. The “pre-stress” samples were kept at approximately 4° C. and the “post-stress” samples were incubated at 40° C. for two weeks in a PCR machine. Functional stability of the variants was compared by running surface plasmon resonance kinetics experiments with the “pre-stress” and “post-stress” antibody preps. The antibodies were assessed using a human antibody capture CM5 Series S chip generated using the GE Biacore human IgG capture kit and a Biacore T200 instrument. Antibodies diluted to 2 μg/ml were immobilized using a 15 second injection time and 10 μl/min flow rate. Binding to Tau monomer at 0 nM, 26.5 nM and 265 nM, at 25° C., using a flow rate of 40 μl/min, was monitored for a 180 second association phase followed by a 300 second dissociation phase. Samples were run in 10 mM HEPES pH7.4, 150 mM NaCl, 0.05% Tween 20 (HBSP) using a multi-cycle kinetics format. Data was analyzed using BIAevaluation software, fitting a 1:1 binding model. The resulting affinity (KD) values are shown in FIG. 8A-D. A Stability Index was also calculated, using the rationale that affinity-compromised antibodies (due for example to deamidation of key residues) are expected to contribute equally to the IgG capture level (“Ligand Level”) but to contribute less to the measured Tau binding, and that this would be reflected in the experimentally derived value for Rmax. To account for variations in the amount of each antibody captured, Rmax was normalized for the antibody capture level (as measured by “Ligand Level”, Response Units immobilized during antibody capture). Thus Normalized Rmax is calculated as the experimental Rmax (units=RU) divided by the “Ligand Level” (Evaluation output representing the RU captured during the hIgG capture step, units=RU), and Stability Index is calculated here as Normalized Rmax (post-stress) divided by Normalized Rmax (pre-stress).

[2] = target: T1, recombinant human Tau monomer, 2N4R …; assay: SPR; Normalized Rmax post-stress (2 weeks 40 C) / pre-stress
In short: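 IgGs captured on anti-human IgG CM5 chip at 2 μg/ml; Tau monomer analyte at 0, 26.5 and 265 nM, 25° C., 180 s association, 300 s dissociation, in HBSP pH 7.4; KD from 1:1 fit. Stress: 0.1 mg/ml antibody held 2 weeks at 40° C versus ~4° C; Rmax normalized to capture level, post/pre ratio.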

[3] = target: T1, recombinant human Tau monomer, 2N4R …; assay: SPR high-resolution kinetics, hIgG1
[4] = target: T1, recombinant human Tau monomer, 2N4R …; assay: SPR screen, hIgG captured, Tau monomer analyte
Excerpt: Antibody 125B11-H3 was humanized onto VH3 and Vκ1 consensus frameworks. The heavy chain graft included murine residues at position 78 (Kabat numbering system). The Vκ1 graft included murine residues in framework positions 43 and 87. The light chain of 113F5-F7 was also humanized onto the Vκ1 framework, with additional murine residues at framework positions 43 and 87. Humanized variant heavy chains (125B11) and light chains (125B11 and 113F5-F7) were co-transfected in multiple combinations and purified in 96-well format as described above. Humanized variants were then screened for affinity for human Tau monomer using the Biacore human IgG capture kit, a Series S CM5 chip and a Biacore T200 instrument. Antibodies were diluted to 2 μg/ml and captured for 15 seconds at 10 μl/min. Association and dissociation of 0, 100 and 500 nM human Tau monomer in HBSP was monitored for 180s and 300s respectively at a flow rate of 40 μl/min. A 1:1 binding model was applied to the results (Table 9).

[5] = target: T1, recombinant human Tau monomer, 2N4R …; assay: SPR single-cycle, human Fab capture kit, Tau monomer analyte; mean ± range, n=2
Description: Affinity of the humanized antibody variants was measured at 25° C. using a Biacore T200 instrument, the GE Biacore human FAb capture kit, and a CM5 Series S chip. Antibodies were diluted to 1 μg/ml in HBSP (10 mM HEPES pH7.4, 150 mM NaCl, 0.05% Tween 20) and captured at a flow rate of 10 μl/min for 180 seconds. Kinetic data were collected for human Tau monomer injected at 1.2, 3.7, 11, 33 and 100 nM in HBSP using the Single Cycle Kinetics methodology and a flow rate of 30 μl/min. Each concentration of Tau monomer was injected for a period of 3 minutes and dissociation was monitored for ten minutes. Between cycles, the surface was regenerated with two sequential one-minute injections of 10 mM glycine pH2.1. Data was fit to a 1:1 binding model using BIAEvaluation software. Each antibody was analyzed twice within the experiment; data in Table 22 are shown as mean±range.

Binder	Kd [1] [nM]	Stability Index [2] [%]	also measured
B1	5.5	261	
B2	22.7	126	
B3	41.6	99	
B4	48.1	83	
B5	35.5	86	
B6	35.6	74	
B7	0.4	208	
B8	10.5	288	
B9	4.1	607	
B10	1.8	456	
B11	1.1	364	
B12	19.1	270	
B13	34.9	93	
B14	31.4	105	
B15	36.4	63	
B16	34.4	77	
B17			Kd [3]: 10.5 nM; koff [3]: 0.0008 s⁻¹; kon [3]: 80000 M⁻¹ s⁻¹; Kd [4]: 18 nM
B18			Kd [3]: 9.5 nM; koff [3]: 0.0007 s⁻¹; kon [3]: 70000 M⁻¹ s⁻¹; Kd [4]: 14 nM
B19			Kd [3]: 10.2 nM; koff [3]: 0.0007 s⁻¹; kon [3]: 70000 M⁻¹ s⁻¹; Kd [4]: 17 nM
B20			Kd [5]: 1.9 nM; koff [5]: 0.001 s⁻¹; kon [5]: 600000 M⁻¹ s⁻¹
B21			Kd [5]: 4.4 nM; koff [5]: 0.003 s⁻¹; kon [5]: 800000 M⁻¹ s⁻¹
B22			Kd [5]: 5.4 nM; koff [5]: 0.005 s⁻¹; kon [5]: 900000 M⁻¹ s⁻¹
B23			Kd [5]: 2.3 nM; koff [5]: 0.001 s⁻¹; kon [5]: 600000 M⁻¹ s⁻¹
